Measured values as given in article doi:10.1101/2020.10.05.326918 (bioRxiv, 2020).

T1: MED15 (Mus musculus (endogenous in CH12 cells), UniProt Q924H2 1-789)
T1 sequence (looked up): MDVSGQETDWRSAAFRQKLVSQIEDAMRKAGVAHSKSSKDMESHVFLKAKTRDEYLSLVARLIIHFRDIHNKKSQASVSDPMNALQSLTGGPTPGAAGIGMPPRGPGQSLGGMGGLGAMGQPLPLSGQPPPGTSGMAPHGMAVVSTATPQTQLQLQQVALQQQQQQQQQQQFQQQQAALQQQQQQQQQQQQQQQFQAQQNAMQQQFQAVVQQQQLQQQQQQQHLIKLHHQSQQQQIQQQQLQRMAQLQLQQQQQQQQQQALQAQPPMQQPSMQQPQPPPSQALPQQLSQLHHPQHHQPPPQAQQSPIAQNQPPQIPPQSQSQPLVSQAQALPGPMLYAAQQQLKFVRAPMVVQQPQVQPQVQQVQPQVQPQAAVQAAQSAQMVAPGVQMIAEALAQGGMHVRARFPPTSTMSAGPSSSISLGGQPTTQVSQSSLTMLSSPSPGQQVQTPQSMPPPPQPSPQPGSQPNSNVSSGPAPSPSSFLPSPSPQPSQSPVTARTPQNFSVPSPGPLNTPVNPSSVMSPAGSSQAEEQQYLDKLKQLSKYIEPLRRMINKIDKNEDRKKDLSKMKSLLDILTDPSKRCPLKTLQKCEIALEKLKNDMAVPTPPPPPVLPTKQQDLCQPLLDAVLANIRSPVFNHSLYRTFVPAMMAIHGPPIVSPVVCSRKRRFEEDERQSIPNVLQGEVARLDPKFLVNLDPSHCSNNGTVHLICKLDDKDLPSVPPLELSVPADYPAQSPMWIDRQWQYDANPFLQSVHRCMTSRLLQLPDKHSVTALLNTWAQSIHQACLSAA

T2: MED16 (Mus musculus (endogenous in CH12 cells), UniProt Q6PGF3 1-828)
T2 sequence (looked up): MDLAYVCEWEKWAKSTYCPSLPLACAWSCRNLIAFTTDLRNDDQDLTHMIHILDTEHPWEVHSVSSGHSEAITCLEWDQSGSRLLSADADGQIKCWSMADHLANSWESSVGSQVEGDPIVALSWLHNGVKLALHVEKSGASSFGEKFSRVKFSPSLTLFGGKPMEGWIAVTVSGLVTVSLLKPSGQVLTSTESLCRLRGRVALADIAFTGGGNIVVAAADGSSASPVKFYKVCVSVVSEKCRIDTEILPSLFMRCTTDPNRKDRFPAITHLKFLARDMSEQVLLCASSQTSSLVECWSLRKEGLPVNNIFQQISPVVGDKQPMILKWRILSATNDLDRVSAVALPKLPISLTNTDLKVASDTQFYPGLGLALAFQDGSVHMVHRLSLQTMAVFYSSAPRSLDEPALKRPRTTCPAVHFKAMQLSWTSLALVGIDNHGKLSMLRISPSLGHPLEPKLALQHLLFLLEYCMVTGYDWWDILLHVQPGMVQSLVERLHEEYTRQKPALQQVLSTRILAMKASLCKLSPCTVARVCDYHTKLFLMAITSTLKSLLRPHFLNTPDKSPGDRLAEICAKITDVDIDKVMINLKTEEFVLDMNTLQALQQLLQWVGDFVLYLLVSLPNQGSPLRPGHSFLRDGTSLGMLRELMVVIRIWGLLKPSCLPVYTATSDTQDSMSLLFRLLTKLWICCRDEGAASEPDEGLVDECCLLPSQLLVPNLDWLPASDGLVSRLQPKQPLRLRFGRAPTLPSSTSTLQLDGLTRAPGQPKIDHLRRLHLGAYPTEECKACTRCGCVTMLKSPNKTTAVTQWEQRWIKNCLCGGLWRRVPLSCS

T3: MED22 (Mus musculus (endogenous in CH12 cells), UniProt Q62276 1-200)
T3 sequence (looked up): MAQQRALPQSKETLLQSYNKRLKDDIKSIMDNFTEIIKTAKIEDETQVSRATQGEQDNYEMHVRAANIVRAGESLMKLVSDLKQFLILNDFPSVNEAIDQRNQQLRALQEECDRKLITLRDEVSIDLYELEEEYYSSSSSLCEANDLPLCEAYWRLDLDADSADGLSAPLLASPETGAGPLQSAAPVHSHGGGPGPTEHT

B1: MED27 (natural protein, Mus musculus (endogenous in CH12 cells), UniProt Q9DB40 1-311, looked up)
chain: MADVLSVGVNLEAFSQAISAIQALRSSVSRVFDCLKDGMRNKETLEGREKAFIANFQDNLHSVNRDLNELERLSNLVGKPSENHPLHNSGLLSLDPVQDKTPLYSQLLQAYKWSNKLQYHAGLASGLLNQQSLKRSANQMGVSAKRRPKAQPTTLVLPPQYVDDVISRIDRMFPEMSIHLSRPNGTSAMLLVTLGKVLKVIVVMRSLFIDRTIVKGYNESVYTEDGKLDIWSKSSYQVFQKVTDHATTALLHYQLPQMPDVVVRSFMTWLRSYIKLFQAPCQRCGKFLQDGLPPTWRDFRTLEAFHDTCRQ
B2: MED29 (natural protein, Mus musculus (endogenous in CH12 cells), UniProt Q9DB91 1-199, looked up)
chain: MAAPQPQAAAVSSASGVSGPGSAGGPGPQQQPQPTQLVGSAQSGLLQQQQQDFDPVQRYKMLIPQLKESLQTLMKVAAQNLIQNTNIDNGQKSSDAPLQRFDKCLEEFYALCDQLELCLRLAHECLSQSCDSAKHSPTLVPTATKPDAVQPDSLPYPQYLAVIKAQITCAKDIHTALLDCANKVTGKTTAPSTGPGGSL
B3: MED17 (natural protein, Mus musculus (endogenous in CH12 cells), UniProt Q8VCD5 1-649, looked up)
chain: MSGVRAVRISIESACEKQVQEVGLDGTETYLQPLSMSQNLARLAQRIDFSQGSGSEEEEAAGPDGDAPDWGGAGADQDDEEGLVKFQPSLWPWDSVRNNLRSALTEMCVLYDVLSIVRDKKFMTLDPVSQDALPPKQSPQTLQLISKKKSLAGAAQILLKGAERLTKSVAENQENKLQRDFNSELLRLRQHWKLRKVGDKILGDLSYRSAGSLFPHHGTFEVIKNTDIDLDKKIPEDYCPLDVQIPSDLEGSAYIKVSIQKQAPDIGDLGTVNLFKRPLPKSKPGSPHWQTKLEAAQNVLLCKEIFAQLSREAVQIKSQIPHIVVKNQIISQPFPSLQLSISLCHSSDDKKSQKCAAEKPGQEDHLYVLEHNLHLLIREFHKQTLSSIVMPHPASAPFGHKRMRLSGPQAFDKNEINSIQSTEGLLEKIIKQAKHIFLRSRTAATIDSLASRIEDPQIQAHWSNINDVYESSVKVLITSQGYEQICKSIQLQLNIGVEQVRVVHRDGRVIMLSHQEQELQDFLLSQMSQHQVHAVQQLAKVMGWQVLSFSNHVGLGPIESIGNASAITVASPSGDYAISVRNGPESGSKIMVQFPRNQCKDLPKSDVLQDSKWSHLRGPFKEVQWNKMEGRNFVYKMELLMSALSPCLL
B4: MED30 (natural protein, Mus musculus (endogenous in CH12 cells), UniProt Q9CQI9 1-178, looked up)
chain: MSTPPLAPTGMASGPFGGPQAQQAAREVNTATLCRIGQETVQDIVYRTMEIFQLLRNMQLPNGVTYHTGTYQDRLTKLQDHLRQLSILFRKLRLVYDKCNENCGGMDPIPVEQLIPYVDEDGSKNDDRAGPPRFASEERREIVEVNKKLKQKNQQLKQIMDQLRNLIWDINAMLAMRN

Assays:
Assay in all cases: cryo-EM structure
[1] = molecular target: B3
[2] = molecular target: T1, MED15
[3] = molecular target: T2, MED16
[4] = molecular target: MED14 (Mus musculus (endogenous in CH12 cells), UniProt A2ABV5 1-1459)
[5] = molecular target: B1
[6] = molecular target: T3, MED22
[7] = molecular target: B2
[8] = molecular target: B4

MED14, sequence (A2ABV5 whole entry): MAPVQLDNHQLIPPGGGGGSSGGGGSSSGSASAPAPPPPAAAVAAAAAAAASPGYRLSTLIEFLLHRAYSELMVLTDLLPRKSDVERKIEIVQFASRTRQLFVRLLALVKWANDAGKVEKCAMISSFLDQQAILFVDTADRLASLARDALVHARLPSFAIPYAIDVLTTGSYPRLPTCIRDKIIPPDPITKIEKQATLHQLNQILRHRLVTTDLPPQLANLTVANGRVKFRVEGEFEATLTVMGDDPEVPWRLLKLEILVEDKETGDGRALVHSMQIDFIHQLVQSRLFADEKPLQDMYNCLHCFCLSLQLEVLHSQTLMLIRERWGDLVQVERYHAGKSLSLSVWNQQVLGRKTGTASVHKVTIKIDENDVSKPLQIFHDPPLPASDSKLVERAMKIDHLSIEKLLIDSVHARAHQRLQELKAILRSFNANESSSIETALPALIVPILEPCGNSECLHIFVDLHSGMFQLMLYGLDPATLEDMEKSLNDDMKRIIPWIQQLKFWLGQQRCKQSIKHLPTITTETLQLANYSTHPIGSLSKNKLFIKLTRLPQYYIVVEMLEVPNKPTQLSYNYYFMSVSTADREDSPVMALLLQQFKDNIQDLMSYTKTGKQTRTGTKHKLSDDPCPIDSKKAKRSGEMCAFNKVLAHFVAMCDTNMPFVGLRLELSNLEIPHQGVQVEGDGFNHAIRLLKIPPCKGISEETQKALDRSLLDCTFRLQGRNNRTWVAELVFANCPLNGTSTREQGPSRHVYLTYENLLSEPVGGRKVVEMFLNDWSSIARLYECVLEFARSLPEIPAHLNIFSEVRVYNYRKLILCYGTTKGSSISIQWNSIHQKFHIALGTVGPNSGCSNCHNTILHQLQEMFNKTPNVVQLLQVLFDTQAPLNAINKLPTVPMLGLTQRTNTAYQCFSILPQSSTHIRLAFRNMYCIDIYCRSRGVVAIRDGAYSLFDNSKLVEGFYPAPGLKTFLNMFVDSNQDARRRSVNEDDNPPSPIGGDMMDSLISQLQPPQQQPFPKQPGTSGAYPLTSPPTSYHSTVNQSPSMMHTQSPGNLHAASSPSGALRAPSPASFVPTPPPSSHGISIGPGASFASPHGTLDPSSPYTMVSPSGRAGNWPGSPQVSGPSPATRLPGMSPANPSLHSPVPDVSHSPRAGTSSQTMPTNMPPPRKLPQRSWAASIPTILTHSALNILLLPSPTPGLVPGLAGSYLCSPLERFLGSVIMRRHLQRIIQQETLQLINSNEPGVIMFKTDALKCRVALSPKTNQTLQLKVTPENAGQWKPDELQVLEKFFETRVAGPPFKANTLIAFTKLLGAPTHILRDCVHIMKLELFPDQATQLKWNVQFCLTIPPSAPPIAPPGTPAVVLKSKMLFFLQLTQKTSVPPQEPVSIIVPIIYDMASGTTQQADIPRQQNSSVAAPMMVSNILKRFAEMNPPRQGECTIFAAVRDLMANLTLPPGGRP

binding result [1] | binding result [2] | binding result [3] | binding result [4] | binding result [5] | binding result [6] | binding result [7] | binding result [8] | Binder
binds | binds | binds | binds | – | – | – | – | B1
– | binds | binds | binds | binds | – | – | – | B2
– | binds | – | binds | – | – | – | – | B3
– | – | – | – | binds | binds | binds | binds | MED28 (natural protein, Mus musculus (endogenous in CH12 cells), UniProt Q920D3 1-178, looked up) MAASLGGMFTGQPPGPPPPPPGLPGQASLLQAAPGAPRPSNSTLVDELESSFEACFASLVSQDYVNGTDQEEIRTGVDQCIQKFLDIARQTECFFLQKRLQLSVQKPDQVIKEDVSELRSELQRKDALVQKHLTKLRHWQQVLEDINVQHKKPADMPQGSLAFLEQASANIPAPLKQT
– | – | – | – | binds | binds | binds | – | B4
